The series is described as follows: label from the status in PepcDB records.
Consider “MKYSLGIDLGTTFSVVSIIDENGAPKVLKNKEGNTLTPSVIYFSGEEIIVGDDAKEMQAMGDNNIACFFKRNMGDENFVLEFQNKYYNAEDLSVIVLKKLKKDAEDFLKAEVKDAVITVPAYFNNIQRQSTINAGKRAEFNVLSILNEPTAAAMAYGMKASGENKNILVYDLGGGTFDVTLVHIGEELIKVLSTDGDHELGGKDWDDRIAMYIGEKFFEKFGVNPMDDIEYYNDILVKCENVKKHLSKRESTDISIYYCDLSEKFTITKEIFLGLTGDLLQRTKSLSDDVIKSAGLTWEDIDGVLPVGGSTRMPMVLDFIKEVSKKEPIVGINVDEAVSIGAAIKASMENATNTPTLRREEKALFTLGGYKKTEDVMSHSLGMIALNSTGERYINSIIIEKNKKIPCTEKRPYEIRTGRNRNNVLEVYMLQGESEEISDCTILGKYVFYDIEYVGRKPSIIDIEYSYNKNGVVDVFATQRETAKKLPLKIEKLSEDFIFEEELNEKEEAVHKNIVIAIDLSGSMRGKPLEEAIEASKTFVDSIDEGSFSLALIGFADKVKTLINLTEDREEIFRAIDGLKKADVGTSTMSEPFSEAYNILKDAYGDCFVVVLTDGQWYGKKDIMAEVNKCKEYEIEIAAIGFGNAKKDFLDKIATCEENSIFTEVSNLKQSFSRIAKVISRSDGSIKIFQKSNSIKLR”, for which the protein production result is “failed”.
As for “MKKIAVFADVQNLYYTVRQAYGCHFNYAALWADISKRGEIVHAFAYAIDRGDSKQQQFQQILRNLGFTVRLKPYIQRSDGSAKGEWDVGITIDIMDFAPQVDEVVLASGDGDFDMLLDRVISKHGVEAVAYGVPGLTANSLIRAASRYVPIEGALLLK”, the entry is “not failed”; as for “MKATFQVPSITCNHCVDKIEKFVGEIEGVSFIDVSVEKKSVVVEFDAPATQDLIKEALLDAGQEVV”, “failed”.
As for “MTTKPRLCTALLTLAIAVSASAPVLAQSMAGGSAKNRYANQTKLDPYPPEGGWQGLANLLEAAKPGVDTRLDPTPSQITDRIEELLNRGANEEALSLIERREAAIKGQRGADVQLMFQHARALAALGRADEAIAVYSDMTTQFPELPEPWNNLAALYASRGELERAQDSLQMALRANPDYAAARANLGDIQLMMALRTYRQEEARGVPGMKARVEEIESLLKDKQPK”, the entry is “failed”.
As for “AIAREWKSQDAWKQHSLRLCFGVWPGTEFLHRPRAVHRRSGVVCSQMQTEDSHPETPQVPKESLQEEKDSSPATDASFIQSQDGKTVFLDRRTERRIQRGFVLTERGPRSIWKPAGTSSQRNERVPRRAAARGGAGPPDTTPQLATVRVLVLGANHVAQRLAELLSSHSRVCGCYFVSETTDEAAIESMKKYAYALPLRSALNDDEVVRVAEWVLADYVFLVPTGETHDDGVSLKDKERLERTLAQNRVTFMDENLTGLLLENPSLIDALFRARDSLEA”, the entry is “failed”; as for “MRKLISIFLILCTFLLCGCSDVKHELNRLSLVLCSGIDLSEDGRYIYTVEILNVGASSPQSSGKQGASPSINVFSSEGHTITEAFNNASVLSGEPLFFAHSRMVVVGERLAKYGLSDMMDKLFRHYTIRPDGLIFVTKGNARDIVSTYTPDQPLPAEKLRTMSMLQEMTGYSISYSRLDLVKALTSKSHAGAIGLISLRPDQKFSNRFNMYGAGVFKKDKLVGYLDTYETRGLQWVTGHISSGSILVPLPDGKRIVFDIIDSKSKIKTKVNGNKLTMEINVAEESLISETNDKTNVMKHYKEMNKLAKLESEAIKKEVSSALAASQDRLKTDIFGFGSEIYRDNPKYWKTVENNWDNIFPNVNVKINVKCIVRRPGLTSQPII”, “failed”.
In the case of “TYWDVDFPRLDQRDSTLTEADHIANVRAALLEAVEMRMVADVPVGCYLSGGIDSCSILGLASAVSQGPVKAFTIGFDDARYDETPIAAEMAEATGAEQDVMRLSGRELYGHMEQTLWHTERTIYNTLAVAKYLMSRHVNSVDYKVVMTGEGSDELFGGYPAFRRDMFLHGLEDLPQSDRQDWESLLQTNNSLVQGAMLAADQVDDPDLDAVVGFTPSCLQPWLACAPLVPDLLADEHRQALVEYSPGKAIAEQLNPQQLDGRHALDKAQYVWIKTMLEGQILTWGGDRVDMANSMEARPAFLDHHLAAAAVQVPPELRIKGKTEKYVLREAMAGLLPEVLYKREKFAFMAPPAHTEPEKWAQMKQLADDYLSDEAIDAAGLLSKEGVRALFARHDDPATTDAERVQMDAVINHLLG”, the protein production entry was “failed”.
Turning to “MRSSQGSGADPGARGRVDQRLRRGARPAPTSPHSPAKTNHPLRAAIIGGGPGGLYTAALLKRLAPDREVTVYERNAPDDTFGFGVVLSDETLGGIEHADPTVYEALKAHFVRWDDIDIVHRHTRHTSGGHRFAALGRRRLLEILHDRCRDLGVELRFRTEAPPPDRLARTHDLVVAADGVHSATREAYRDVFRPRLTPHRCRYIWLAADFAFDAFRFEIAETEHGVMQLHGYPFAPDASTVIVEMREEVWRAAGFDELDETESTARCAKIFADALGGRPLRSNKSAWTTFRTVVNERWSHGNIVLLGDAAHTAHFSIGSGTKLAVEDALALAACLAERPTLQEALTAYEEERRPVVASTQRAAKASLEWFEDLDRYLAQPPRQFAFNLLTRSRRVTHENLRLRDAGFTESVEREFGCPPDTPPMFTPFRLRGLTLRNRVVVSPMDMYSATDGVPGDFHLVHLGARALGGAALVMTEMVCVSAEGRITPGCAGLYTGRQGEAWRRITDFVHDGAPGTAIGVQLGHSGRKGSTRLMWEGMDEPLPDGNWPLVAPSPLPYRPGGQVPRELSRAQLADVREQFRAAAERAAGAGFDLLELHCAHGYLLSGFLSPLTNHRTDAYGGSPENRLRFPLEVFDAVREVWPDERPMTVRISATDWAEGGTSAEEAVEIARAFAAHGADAIDVSTGQVVSGERPEFGRSYQTPYADRIRHEAGVPVIAVGAISSWDDVNSLVLAGRTDLCALARPHLYDPHWTLHAAAEQGYDGPGARWPAPYRAGSRPPRTGRTDAPRPRLTLHGPGQDG”, the protein production entry is on record as “failed”.
As for “TVASRLSDTKAAGEVKALDDFYKMLQHEPDRAFYGLKQVEKANEAMAIDTLLISDELFRHQDVATRSRYVRLVDSVKENAGTVRIFSSLHVSGEQLSQLTGVAAILRFPVP”, the entry is “not failed”; as for “MAKKVKVITDPEVIKVMLEDTRRKILKLLRNKEMTISQLSEILGKTPQTIYHHIEKLKEAGLVEVKRTEMKGNLVEKYYGRTADVFYINLYLGDEELRYIARSRLKTKIDIFKRLGYQFEENELLNIMDRMSQKEFDATVRISKYIEEKEDALKDFSNEDIIHAIEWLSTAELARDEEYLELLKRLGSILKR”, “not failed”.
For “MFSFNMFDHPIPRVFQNRFSTQYRCFSVSMLAGPNDRSDVEKGGKIIMPPSALDQLSRLNITYPMLFKLTNKNSDRMTHCGVLEFVADEGICYLPHWMMQNLLLEEGGLVQVESVNLQVATYSKFQPQSPDFLDITNPKAVLENALRNFACLTTGDVIAINYNEKIYELRVMETKPDKAVSIIECDMNVDFDAPLGYKEPERQVQHEESTEGEADHSGYAGELGFRAFSGSGNRLDGKKKGVEPSPSPIKPGDIKRGIPNYEFKLGKITFIRNSRPLVKKVEEDEAGGRFVAFSGEGQSLRKKGRKP” the value was “not failed”.
With “MMDFDFLEGKRLTEDVALDETMVWNEDIEMLDLHLVATSALIGVVHRVSYELLSRYLPNDYTAVVVETLARHVKAVPTGTRVAVGVRVVGVVGNRVKFRGIVMSGDEKILEAEFVRAIVPREKLRRLALEKAEKTSRLFGI”, the protein production entry is “not failed”.
For “MGKGCAASLWPTAIGPRMPRPLSLLPRPAGLMLRLVGSLVLTLWLVWLLADRLALLAPGEVIAALSGLPVWRLAAALLATAVSFWALGRYDGVAHRHFRTGLAARQARLCGMAAIGFSQFVGCGVLSGSFARWRMIGDLTPALALRLTTFVAITFLLALAFWASALCLIAPPLPGLRQTGVAGLALLLPITLVLFLLPRLRLGRFTLRLPSLRALGAILGWAALDLAAAAAVLWVLLPALSWTDLPLLMSAYVLALAAGLLSGAPGGLGAFELTLLALLPAIPGAELMAAVLAYRLIYVALPALAAVPLLLSPPDLRLGRQHRLPRRIHHHPPARPRAETAVVTQSRGYVLSGGFADMAVVETDQSLIMLFDPVCGGRHPDLYLLARRAAQRNLFALVYKCSARVAVSARRAGWRVRHVSDEATLVPADFTIAGSHRRQLRRKLRQAERAGLTVRRASTLPLTQMAAVDRLWQEANGRAWGLTMGRFAPDYLARQAVFLAWRGARLEGFVSFHRSRDEWCLDLMRTHPDAPEGTMHALVATALAATAAARVPRLSLAAVPAGRLGHRFDGLRQFKDSFAPRWQPLYMAAPGWTAIALAAADLARHVQAPPPLAAPDAQPAHDLDEEIEFASLTGT” the value was “failed”; for “MFFMLFVLRIPAAFTLMMVGFLGIATVTTWDAALAMLGSELWGSFSNYGLTVIPLFILVGEIVHYAGYNNSLYHATYKWFGHKRGGLAMTTILASAAFSAISGSNTATAATMSAVAIPAMKEYKYHPLLNAGSVAAGATLGVLIPPSIVLVVYGLYTGQSIGKLFFGNVIPSAILTILILLTVVWICRRHPDWGPEGPRSGWGERFAALPEAIDILILFAIIMYALFTGVVTATEAAAVSCFLALVICGLRRKLTWKKLTGALVDTLRISCMVFMIVAGAVIFAKFLTITRLPYETAEWISSLDLPRWMVLWVILACYIIGGCIMDALAFLLVSLPIFYPLVTQLGYDPIWFGQVITIVTTMGSIMPPIGICCYVVSGMSGIPLGTVFRSGLYYMPSYIASIAILMVSPYWTVLVLADLVK”, “failed”; for “YDAILLIDYRQRRIIDCNQTAQKLLGYSKEELRLLPPYRLLRAMSARSIKPIFQDILAKRREIHDITLLSQSGEQLLGQLSFNTLQEED”, “failed”.
For “MKVFFVVTHLLGSGHLSRTLVLARAHLKAGHEVTLISGGMPVPHLSHDGITLVQLPALRSDGVNFTRLLDDKGDVASETLMRDRREKLLSTFEEAAPDVLVTELFPFGRRSLSDEFLALLNMAKARKNPPRICCSIRDILAPPSKPSKAARVRDIITEFYDAIIVHSDPDVTPLAASWPVTEDIAEKLRYSGFVANPPAPMHPDAPGQGEVLVSAGGGAVGDALYAAALGAAKLNGDLHWRVLVGGADAPAKCAALKEGCPANTTIEPARPDFRQMLHRAKASVSMCGYNTALDILQSGTPAVFVPFDAGGEVEQSLRASALAKMAGIRVVNSVDLQPEALLNTVHSVVQDPRRGPQTRGLDGASRTAELLETLVEASGHAG” the value was “failed”; for “ALAERRLFAELVDHSVVNVHVVDKDLRWLAVNRQARHDFHLLYGRTPEIGDYLPGLFEDGTAGQTPILPMWQRALAGEQFIEIGTFGKPPAVRHYELRFNALRDPKGEVQGAFLFAYDISERVQEQERLAKAEAALRQAQKMEAVGQLSGGIAHDFNNLLGGI”, “failed”; for “MSDPGFEYAPIGLVELENRVIRRCNLHFASMFGGQESEYRDMPLLRLYPSHEDFERIGKRGLQVMRETGYYTDERIMRRRDGDLFWCRARGKSLTPDDPFRHGIWSFADISEERRVVELTPREREVALLTCRGLSAKEVGVELGLSYRTIEAHRARLLQKFGARKLPELVAKLSGMPL”, “failed”.
Take “MNTLRTAMLLAAMTALFMGVGFLIGGSGGMMIALLIAAGTNLFSYWNADKMVLSMNRAVEVDEKNAPEYYAIVQALAKQAGLPMPRTYLIDNPQPNAFATGRNPQNAAVAASTGLLQRLTHEEVAAVMAHELAHVQHRDTLTMTIVATFAGAISMLGNFAFFLGGNRDNNPFGFVGVLAAMIVAPFAAMIVQMAVSRTREYEADRRGAEICGHPLWLASALDKIARGAERIPNPDAERNPAMAHLFIINPLHGERMDNLFSTHPSTDNRIAALQEMAQQMAGGTQAAPRPTPRQAGEQQPSGPWGQAPQAEQPAEPERPKANPWGRNPTGPKGRWS”: the protein production result is reported as “failed”.

(Values after a protein production outcome set (Wang et al. 2014).)
